Measurements: paper doi:10.1101/2024.09.21.614250 (bioRxiv, 2024)
Each block holds one binder with its values, some of them ahead of it.

Tests used:
[1] = molecular target: T1, Shp2^tSH2 (aa5-218), C-terminally SNAP-tag-fused, SC505-labeled (human, UniProt Q06124 5-218, Snap-Cell505 star (SC505) label on the SNAP-tag); test: FRET or BRET
T1 sequence: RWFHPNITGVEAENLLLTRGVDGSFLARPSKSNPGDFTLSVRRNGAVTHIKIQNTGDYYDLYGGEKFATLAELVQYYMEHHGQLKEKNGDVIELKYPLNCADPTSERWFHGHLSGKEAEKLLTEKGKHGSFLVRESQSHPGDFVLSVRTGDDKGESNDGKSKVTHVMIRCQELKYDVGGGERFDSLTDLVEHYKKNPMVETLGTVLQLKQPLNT

[2] = molecular target: T2, Shp1^tSH2 (aa4-215), C-terminally SNAP-tag-fused, SC505-labeled (human, UniProt P29350 4-215, Snap-Cell505 star (SC505) label on the SNAP-tag); test: FRET or BRET
T2 sequence: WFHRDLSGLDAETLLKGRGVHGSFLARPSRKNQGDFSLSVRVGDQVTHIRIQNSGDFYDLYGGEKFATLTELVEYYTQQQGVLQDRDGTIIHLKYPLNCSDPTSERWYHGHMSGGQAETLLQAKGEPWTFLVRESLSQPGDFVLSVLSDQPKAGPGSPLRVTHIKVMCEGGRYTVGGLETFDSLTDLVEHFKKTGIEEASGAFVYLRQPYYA

- Kd [1]: 220 nM
- binding result [2]: binds
B1: His-tagged moPD1 ICD WT, phosphorylated by Lck (domain or fragment)
chain: CSTSMSEARGAGSKDDTLKEEPSAAPVPSVAYEELDFQGREKTPELPTACVHTEYATIVFTEGLGASAMGRRGSADGLQGPRPPRHEDGHCSWPL
modifications: phosphorylated by Lck on the LUV after ATP addition (sites not stated for this assay)

- Kd [1]: 76 nM
- binding result [2]: binds
B2: His-tagged huPD1 ICD WT, phosphorylated by Lck (domain or fragment)
chain: CSRAARGTIGARRTGQPLKEDPSAVPVFSVDYGELDFQWREKTPEPPVPCVPEQTEYATIVFPSGMGTSSPARRGSADGPRSAQPLRPEDGHCSWPL
modifications: phosphorylated by Lck on the LUV after ATP addition (sites not stated for this assay)
